From US20160289331A1 (NATIONAL UNIVERSITY CORP HOKKAIDO UNIVERSITY, published 2016)

Legend:
[1] = molecular target: mDR6 expressed on mouse T cells (DO11.10-T cells, splenocytes) (mouse) (UniProt Q9EPU5); assay: cell-based or functional assay
[2] = molecular target: T1, mouse Sdc1 (mSdc1) expressed on cells (mouse, UniProt P18828 18-311, heparan sulfate is bound at position 45 and position 47); assay: binding of labeled Fc fusions to DO11.10-T cells expressing mSdc1
T1 construct: On DO11.10-T or A20 cells transformed with pMXsIG/mSdc1, and endogenous on A20 cells (shRNA experiment); also called mouse syndecan-1; CD138
T1 sequence: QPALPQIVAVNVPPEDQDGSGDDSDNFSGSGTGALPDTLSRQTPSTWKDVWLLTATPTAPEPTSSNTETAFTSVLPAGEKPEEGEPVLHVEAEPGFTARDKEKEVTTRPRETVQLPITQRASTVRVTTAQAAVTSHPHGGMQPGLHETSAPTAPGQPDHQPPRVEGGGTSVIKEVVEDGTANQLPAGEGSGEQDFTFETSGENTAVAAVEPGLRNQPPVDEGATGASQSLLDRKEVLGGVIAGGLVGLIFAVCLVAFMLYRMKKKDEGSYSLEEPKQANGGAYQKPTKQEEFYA
Source text: An expression vector (pMXsIG/mSdc1) into which a gene encoding mSdc1 (SEQ ID NO: 7) was incorporated in an expressible manner, and a control vector (pMXsIG) were introduced into DO11.10-T cells to prepare transformed cells. Binding abilities of these two kinds of transformed cells to labeled mDR6-hFcm and to labeled mDR6-hFcm deltaCRD1 was examined, and it was confirmed that binding ability of mDR6-hFcm deltaCRD1 increased to about 2.5 times of that of mDR6-hFcm (FIG. 22).

mSdc1-His (ligand) gave an IL2 production level of DO11.10-T cells stimulated with anti-CD3 antibody, mSdc1-His at final concentration 100 nM [1] of 50%.

B1: mDR6-hFcm deltaCRD1 (Fc fusion)
chain: QPEQKTLSLPGTYRHVDRTTGQVLCHDCSQPCPWPMIERLPCAALTDRECICPPGMYQSNGTCAPHTVCPVGWGVRKKGTENEDVRCKQCARGTFSDVPSSVMKCKAHTDCLGQNLEVVKPGTKETDNVCGMRLFFSSTNPPSSGTVTFSHPEHMESHDVPSSTYEPQGMNSTDSNSTASVRTKVPSGIEEGTVPDNTSSTSGKEGTNRTLPNPPQVTHQQAPHHRHILKLLPSSMEATGEKSSTAIKAPKRGHPRQNAHKHFDINEHL
modifications: labeled
notes: Derived from pcDNA/mDR6-hFcm; the Fc part is that of mDR6-hFcm; also called CRD1-deficient solubilized DR6 mutant; cysteine rich domain-deficient mDR6 mutant; not shown: human IgG Fc region
In the case of B1, the “binding ability relative to mDR6-hFcm” value [2] is reported as about 2.5 times.
